Results taken from paper PMC5902578.

Key:
[1] = target: yeast Hsp90 W300E (S. cerevisiae) (UniProt P02829); experiment: AUC; as a1, with 2 mM AMP–PNP
[2] = target: yeast Hsp90 W300A (S. cerevisiae) (UniProt P02829); experiment: AUC; as a1, with 2 mM AMP–PNP
[3] = target: yeast Hsp90 W300E (S. cerevisiae) (UniProt P02829); experiment: AUC; as a1, with 2 mM ATPγS
[4] = target: yeast Hsp90 W300A (S. cerevisiae) (UniProt P02829); experiment: AUC; as a1, with 2 mM ATPγS

percent of labelled GR-LBD in complex [1]: < 5%
percent of labelled GR-LBD in complex [2]: < 5%
percent of labelled GR-LBD in complex [3]: < 5%
percent of labelled GR-LBD in complex [4]: < 5%
Substance: human glucocorticoid receptor ligand binding domain (GR-LBD) (domain or fragment)
